The nature of the data set: Ex vivo dual perfusion of the mouse placenta (maternal-fetal transport). The format is in vitro ADME. Particulars: 300 ng/ml through the uterine artery. Here is the method: FIG. 6. Maternal osteocalcin favors fetal neurogenesis. (A) Expression of osteocalcin (qPCR) in bone, brain, and placenta of WT and Ocn^−/− newborns (postnatal day [P] 0) and embryos (E13.5-E18.5). (B) Osteocalcin circulating levels in WT or Ocn^−/− newborns (P0) and embryos (E13.5-E18.5). (C) Ex vivo dual-perfusion system that monitors the transport of osteocalcin across the placenta. Uncarboxylated mouse osteocalcin (300 ng/ml) was injected through the uterine artery in placentas obtained from WT mice at E14.5, E15.5, and E18.5 of pregnancy. Osteocalcin in fetal eluates is represented as % of maternal input. (D) Circulating levels of osteocalcin in WT embryos originating from WT or Ocn^+/− mothers, of Ocn^+/− embryos originating from Ocn^+/− Ocn^−/− mothers, and of Ocn^−/− embryos originating from Ocn^+/− or Ocn^−/− mothers. Measurements were performed at E16.5 and E18.5. […]
Maternal-fetal transport of osteocalcin was monitored using ex vivo dual perfusion of the mouse placenta (Goeden & Bonnin, 2013, Nature Protocols 8:66-74). […] Osteocalcin transport through the placenta was analyzed by measuring the concentration of osteocalcin present in fetal eluates obtained through the umbilical vein, each time point (1-9) corresponding to a 10 minute collection period (at 5 μl/min). […]

B1: uncarboxylated osteocalcin: Recombinant osteocalcin bacterially produced, cleaved from the GST subunit; completely undercarboxylated at all three sites (protein, listed as Homo sapiens)
chain: MRALTLLALLALAALCIAGQAGAKPSGAESSKGAAFVSKQEGSEVVKRPRRYLYQWLGAPVPYPDPLEPRREVCELNPDCDELADHIGFQEAYRRFYGPV
modifications: uncarboxylated
notes: Recombinant osteocalcin bacterially produced, cleaved from the GST subunit; completely undercarboxylated at all three sites
Regarding B1, for the setting “WT placentas”, the “transport across the placenta, onset” value is reported as “begins to cross the placenta at day 14.5 of gestation”. The “transplacental transfer to the fetal circulation at day 15.5 or 18.5 of gestation” value (compared with day 14.5) is listed as “larger transplacental transfer”.

(Values after US10052364B2, “Osteocalcin as a treatment for cognitive disorders” (THE TRUSTEES OF COLUMBIA UNIVERSITY IN THE CITY OF NEW YORK, priority 2013, dated 2018).)
